From the RNAGym collection of RNA variant scans (doi:10.1073/pnas.2313332121) come the findings set out here.

The chains are these.
B1: TPR t1 (parent)
chain: GACCAAUCUGCCCUCAGAGCUCGAGAACAUCUUCGGAUGCAGAGGAGGCAGGCUUCGGUGGCGCGAUAGCGCCAACGUCCUCAACCUCCAAUGCAUCCCACCACAUGAUGAUGCCUGAAGAGCCUUGGUUUUUUG

This data set covers variants of B1. Briefly: polymerase ribozyme fitness, log enrichment relative to wild type (log ratio); higher = more active; in vitro selection for triplet polymerase activity. Put shortly: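 To select mutant libraries of each subunit of a heterodimeric triplet polymerase ribozyme, built by PCR and transcribed, each was annealed with a biotinylated primer, partner subunit and triplets, then incubated frozen at −7 °C. Extended constructs were gel-excised, captured on streptavidin beads and amplified by RT-PCR, in one round carried out in triplicate. Illumina sequencing of input and output libraries kept genotypes with ≥10 input reads and ≥1 read per output. Fitness is the base-2 logarithm of genotype enrichment relative to wild-type enrichment, from inverse-variance-weighted replicate averages.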
With G47C C49A A111U, the “polymerase ribozyme fitness (log ratio)” value was -5.94. The figure for G47A C62A G120A U126A is -3.07. For G47A U54C U59A the value was -0.546. For G47A C53U A95G the value was -3.19; for G47A A50U U81A, -0.591. As for G47A C49U G63C, the “polymerase ribozyme fitness (log ratio)” value is -1.35. The figure for G47C C73U is -1.61; for A46U G71A C73A A91G it is -5.51; for G47C C70U G120C it is -0.515. For G47C C49G U55G C73G C97A A119G the value was -5.16; for G47A U59C C79G G120A G128A G135U, -5.95; for G47A G48A C53G G69U U132A, -0.097. Regarding G47A C70U G77U G93A, the “polymerase ribozyme fitness (log ratio)” value was -3.29. For the variant G47A G110C, the “polymerase ribozyme fitness (log ratio)” value was -4.91. The figure for G47A C62U G113U is -4.52. The figure for A46U U78C C82G is -1.76.

For G47A G60C, the “polymerase ribozyme fitness (log ratio)” value was -1.05.

G47A G60A: the “polymerase ribozyme fitness (log ratio)” value worked out at 1.12. For G47A G60U the value was -0.146. On to A46U U81C C101G, for which the “polymerase ribozyme fitness (log ratio)” value is -4.31. The figure for G47A A50U C53A U78G is -2.33; for G47C C62U it is -1.21. The figure for G47C A90U G128C is -5.03; for G47A C53A C97A A119G C123A it is -4.34. The figure for G47A G69C C73U U106A is -2.08.

For the variant G47C C70A U131G, the “polymerase ribozyme fitness (log ratio)” value was -4.27. The figure for A46U G71A C72G A119G is -1.69.

G47A U96A C98G: the “polymerase ribozyme fitness (log ratio)” value is -6.21.

With G47A G128A, the “polymerase ribozyme fitness (log ratio)” value was -2.43.

For the variant G47A A50G G113A, the “polymerase ribozyme fitness (log ratio)” value is -2.34. As to A46U G71A C82G U87G, the “polymerase ribozyme fitness (log ratio)” value is -1.78. Take G47A G71U C104A: the “polymerase ribozyme fitness (log ratio)” value is -2.85. For G47C A111C A118C the value was -2.36; for G47C C123G U133A, -0.852. The figure for G47A G51A U130A is -4.79; for G47A G63A C85G it is -3.45. As for G47A G57C A121U G135U, the “polymerase ribozyme fitness (log ratio)” value stood at 1.05. The figure for G47A U106A U133A is -1.13; for G47A U112G G117A it is -3.86.

With A46U G120A, the “polymerase ribozyme fitness (log ratio)” value was -0.14.

As for A46U U54G G69U U78C G117U, the “polymerase ribozyme fitness (log ratio)” value is -4.42. For A46U G71A G93A G120A G122A the value was -3.97; for A46U G63U A83U G110U, -6.56; for G47A C82U C86G, -0.151. The figure for G47A G77U is -0.132; for G47C C104U it is -1.08; for A46U U131G it is -1.62. For G47C C82U C114A the value was -2.65; for G47A C64U, -2.13; for A46U G61C C79U, -1.59. Turning to A46U G77A A95G, the “polymerase ribozyme fitness (log ratio)” value is -1.31. The figure for G47A C104U is -1.4.

Regarding G47A C49U G65U G69U C86U G127U, the “polymerase ribozyme fitness (log ratio)” value is -4.94.

With G47A C82G, the “polymerase ribozyme fitness (log ratio)” value was -1.3.

With G47A U78C G113U, the “polymerase ribozyme fitness (log ratio)” value was -4.27. The figure for G47A G69A is -3.08. Take G47C C73G U81A: the “polymerase ribozyme fitness (log ratio)” value is -2.91.

With G47A C56U A105U, the “polymerase ribozyme fitness (log ratio)” value is -2.73. The figure for A46U U54G C82A G110U is -3.02; for G47C A111G it is -2.34; for G47C C72U A90G C123U it is -1.64. The figure for G47A C62A is -1.78; for G47A C62U it is -1.85; for A46U G65C it is -7.92.

A46U G65A: the “polymerase ribozyme fitness (log ratio)” value was -4.9. The figure for A46U G63A C86U is -2.45; for A46U U78C C124A it is 0.325. With G47A A50U G61U, the “polymerase ribozyme fitness (log ratio)” value was -0.935. The figure for G47A C56U C73U C101U A119G G120U G127A is -1.08. In the case of G47A C49A G60C G93A G113C G127U, the “polymerase ribozyme fitness (log ratio)” value is -6.14. As for G47A C76G C114G, the “polymerase ribozyme fitness (log ratio)” value was -3.13. For A46U U87G G93A C98U the value was -1.2. In the case of G47A U96A, the “polymerase ribozyme fitness (log ratio)” value was -1.93. For G47A U92C G127A the value was -5.01; for G47C C86A, -0.437; for A46U U59C U109A, -5.97. For G47A C72U A121C U129A the value was 0.0942; for G47C C70A, -5.04; for G47A U96A U126C, -3.31. The figure for A46U G77A G127C is -2.57. For G47C A90G G117C, the “polymerase ribozyme fitness (log ratio)” value was -4.53. Consider G47A C73G U125A G128A, for which the “polymerase ribozyme fitness (log ratio)” value is -3.1. The figure for G47A A50U C73U C124U U132A is -0.0565; for G47C C56G it is -1.79.
